According to the supplement of paper PMC9170038:

Test system: MS2 coat protein
Experiment: apparent KD of MS2 coat protein; designed switch direction (-1 OFF switch, 1 ON switch): -1; higher = weaker reporter binding
Summary of the method: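 The apparent KD reported per design is the median over clusters of curve fits to normalised cluster fluorescence. The RNA switches were transcribed on Illumina chips by stalled E. coli RNA polymerase. SNAP-549-labelled MS2 coat protein was titrated from 0.7 or 1.5 nM, doubling up to 3 µM, in Tris-HCl pH 7.5 buffer containing KCl, MgCl2, BSA, DTT, tRNA and Tween-20, with no input, 200 uM small-molecule ligand, or an oligonucleotide input.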

[1] = Eterna round: R95, input ligand: microRNA oligo, concentration not stated
[2] = input ligand: microRNA oligo, concentration not stated
[3] = Eterna round: R95, input ligand: FMN 200 uM
[4] = Eterna round: R95, input ligand: none

Sequence | apparent KD of MS2 coat protein (input ligand: FMN 200 uM) [nM] | apparent KD of MS2 coat protein (input ligand: none) [nM] | apparent KD of MS2 coat protein [2] [nM] | further results
AUUAGCUGAGGAUAUGCAGCUUUGUUCGUCGAGUGAAAAGAACAUGAGGAUCACCCAUGUAGAAGGCAGUUGAC [Raargexe] (puzzle: Exclusion 2) |  |  |  | apparent KD of MS2 coat protein [1]: 14.8 nM
AUUAGUAAUAAGGAUAUCACUAGCUGCGGCUAGUGAGAAGGUAUUACAUGAGGAUCACCCAUGUGAUCAAUUAA [E6/3-A3] (Eterna round: R97, puzzle: Exclusion 6) | 912 | 476 |  | 
AUUAUAUAGACAGGAUAUUGAUUAUUAUUUUAACAUGAGGAUCACCCAUGUAGCCUUAUGUAUAGCAAGAAGGGUCAUUUAUUA [Title] (Eterna round: R96, puzzle: Exclusion NG 2) |  |  | 122 | 
AUUAUAUAGUUAGGAUAUUGAUUAUUAUUUUAACAUGAGGAUCACCCAUGUAGCCUUAUGUAUAACAAGAAGGAACAUUUAUUA [Title] (Eterna round: R96, puzzle: Exclusion NG 2) |  |  | 97.9 | 
AUUAUGUGAGGAUAUUAGUAGUAAAUAAAUAAAAUUAUUACUGAGAAGGCACAUGAGGAUCACCCAUGUUCCUU [Salish 062 v6] (Eterna round: R97, puzzle: Exclusion 4) | 127 | 24.1 |  | 
AUUGAUAUUGAGGAUAUGCUUUUAUUUGAACAAGCAGAAGGCGAUACAUGAGGAUCACCCAUGUUUAUGGAAGU [JR_E6_Sub087] (puzzle: Exclusion 6) |  |  |  | apparent KD of MS2 coat protein [3]: 51.6 nM; apparent KD of MS2 coat protein [1]: 37.6 nM; apparent KD of MS2 coat protein [4]: 49.4 nM
AUUGUAUGGGAAGGAUAUAGAAUAUUAUUUUAACAUGAGGAUCACCCAUGUAACCUUAUGUGUAGCUAGAAGGUCCGUUUAUUA [Title] (Eterna round: R96, puzzle: Exclusion NG 2) |  |  | 112 | 
AUUGUUUAUGUAGGAUAUGCCUGGCGUGCCUUCGCAGAAGGACAUGAGGAUCACCCAUGUAUUGCGGUCUGCGUUCAGAUCGCA [salish99_ExNG1_r4_024] (Eterna round: R96, puzzle: Exclusion NG 1) |  |  | 45.2 | 
AUUGUUUGAUACCUCUAAUACAUGAGGAUCACCCAUGUUAUCGAGGAUAUGCAGAAUAGAUUAGAGCAGAAGGCGAAGUAAUAU [JR_ExcNG3_Sub026] (Eterna round: R96, puzzle: Exclusion NG 3) | 31.1 | 15.6 | 13.3 | 
AUUUAAUUUAAUAAGAUCACAUGAGGAUCACCCAUGUUAUAAUAGGAUAUCAGCUCGAAUAGAGCUGAGAAGGAUUAUAACAUG [ExNG3/9-A4] (Eterna round: R96, puzzle: Exclusion NG 3) | 17.2 | 29 | 138 | 
AUUUAGCAAGCGUGAUCCUACAUGAGGAUCACCCAUGUAGUUCGUCUUAUUUGAAGACAACACAAAAGUGUUGUCUU [Omei Mir OFFv1 B8] (Eterna round: R97, puzzle: Sensor, turn-off variant 1) | 355 | 212 |  | 
AUUUUGUCAGGAUAUGAGUAGUAGGACGAAAGUGUUAUUAUUUAGAAGGGACAUGAGGAUCACCCAUGUUUCUC [Bring Us a Shrubbery-02] (puzzle: Exclusion 4) |  |  |  | apparent KD of MS2 coat protein [1]: 12.2 nM
AUUUUGUCAGGAUAUUGUUAGUUUAGUUGUUUGUAUUAGUUCGAGAAGGGACAUGAGGAUCACCCAUGUGAUUU [Ex4 #74] (Eterna round: R97, puzzle: Exclusion 4) | 135 | 114 |  | 
AUUUUGUGAGGAUAUGGUAACGUUUACAUGAGGAUCACCCAUGUUUCAUGGGACUAGAGACUAGAAGGCACUAACG [JR_Ex5_Sub028] (Eterna round: R97, puzzle: Exclusion 5) | 251 | 279 |  | 
AUUUUGUGAGGAUAUUAGAAGUAGAAAGUUGGUAGUAUUGCUGAGAAGGCACAUGAGGAUCACCCAUGUACAAC [JR_Ex4_Sub036] (Eterna round: R97, puzzle: Exclusion 4) | 17.6 | 16.7 |  | 
AUUUUGUGAGGAUAUUAGUUGUAGAAAAUUAUUAGUUUAGCUGAGAAGGCACAUGAGGAUCACCCAUGUAAAUC [JR_Ex4_Sub043] (Eterna round: R97, puzzle: Exclusion 4) | 26.7 | 18.6 |  | 
AUUUUGUGAGGAUAUUAGUUGUAGAAAGUUGUUAGUAUUGCUGAGAAGGCACAUGAGGAUCACCCAUGUACAAC [JR_Ex4_Sub038] (Eterna round: R97, puzzle: Exclusion 4) | 20.6 | 19.1 |  | 
CAAAACCUAGGAUAUACAUGAGGAUCACCCAUGUCGGGCCUACGCUAAACGCGCCUCAGUAGAAGGAGGGAAAC [Usasoon] (puzzle: Exclusion 3) |  |  |  | apparent KD of MS2 coat protein [3]: 135 nM; apparent KD of MS2 coat protein [1]: 52.6 nM; apparent KD of MS2 coat protein [4]: 63.2 nM

Sequence | apparent KD of MS2 coat protein (input ligand: FMN 200 uM) [nM] | apparent KD of MS2 coat protein (input ligand: none) [nM] | apparent KD of MS2 coat protein [2] [nM] | further results
CAAGCUAUUGUAGCAACUAACAUGAGGAUCACCCAUGUAGGCAUAACUUACCUAGCUCGUUUAUACAAAUCAAUUGU [Eternabot (L2) Solution 11] (Eterna round: R97, puzzle: Sensor, turn-off variant 1) | 13.1 | 17.6 |  | 
CAAUAGUGAGGAUAUCUGAUCACACCAUGAAGAAGGAGUGUAGAGAAGGCACAUGAGGAUCACCCAUGUCCCGU [Eternabot (L2) Solution 43] (Eterna round: R97, puzzle: Exclusion 4) | 37 | 23.9 |  | 
CAAUUCCGAGGAUAUACAUGAGGAUCACCCAUGUCGGGCCUCAGCGUUUAGCGCUUAAGUAGAAGGUGGGUUUC [JL Riri mod 5] (puzzle: Exclusion 3) |  |  |  | apparent KD of MS2 coat protein [1]: 32.5 nM
CACAUUACAAAGGAUAUCUGACCAUGCCCUGGCAGAGAAGGUUGGACAUGAGGAUCACCCAUGUGUAUCCAAGU [Eternabot (Original) Solution 6] (Eterna round: R97, puzzle: Exclusion 6) | 37.7 | 26.8 |  | 
CACCAUCGUGUAAGGAUAUCGAGGCUUAGCGGGUGUGAGAAGGUACAUGAGGAUCACCCAUGUUACGAUUUGCG [Eternabot (L1) Solution 77] (Eterna round: R97, puzzle: Brourd's mod of Exclusion 4) | 28.8 | 25.6 |  | 
CACCCACAUGAGGAUCACCCAUGUGAGGAUAUGAUACUAUGUACUUCGGUACAUAGUAUCAGAAGGCACAGGUG [Ex1-3: 61] (Eterna round: R96, puzzle: Exclusion 1) | 102 | 28 | 25.7 | 
CACCCACAUGAGGAUCACCCAUGUGAGGAUAUGAUACUAUGUACUUCGGUACAUAGUAUCAGAAGGCACAGGUG [Ex1-3: 61] (puzzle: Exclusion 1) |  |  |  | apparent KD of MS2 coat protein [1]: 30.3 nM
CACCGUUAAGUAGGAUAUCGUACAUGAGGAUCACCCAUGUAAUAAAUGAGAAUUUCGGAUGUAUGCGAGAAGGACUAAAUCGGC [Ostricism 45 - Jieux - Exclusion NG 2] (Eterna round: R96, puzzle: Exclusion NG 2) |  |  | 39 | 
CACCGUUACUGAGGAUAUGGCACAUGAGGAUCACCCAUGUAAUAAAUGAGAAUUUCGGAUGUAUUCCAGAAGGCAGUAACCGGC [Ostricism 69 - Jieux - Exclusion NG 2] (Eterna round: R96, puzzle: Exclusion NG 2) | 30 | 27.1 | 23.3 | 
CACCUACAUGAGGAUCACCCAUGUGAGGAUAUGGAACAACAAGAACAUUUACUUGUUCCCAGAAGGCACAUUGG [jun14#1] (Eterna round: R97, puzzle: Exclusion 1) | 64.3 | 130 |  | 
CACGAACAUGAGGAUCACCCAUGUCAGGAUAUGAGGCUUUGCGUGCCGCAUUUUGGUCUUAGAAGGGACAGCCG [Eternabot (L2) Solution 49] (Eterna round: R97, puzzle: Exclusion 1) | 22.3 | 23 |  | 
CACGAAUUGUGAGGAUAUGUGCGACAAAGUUGCACAGAAGGCACAUGAGGAUCACCCAUGUAAGCUAGGUCGAAAGACCUAGCG [Omei Exc(NG)1 Av1] (Eterna round: R96, puzzle: Exclusion NG 1) | 215 | 56.4 | 22.7 | 
CAGACACAUGAGGAUCACCCAUGUGAGGAUAUGCGUACGUUGUCCGUAGGCGACGUGCGCAGAAGGCGCAUUGG [JL-ex1-3.12 Eli mod] (puzzle: Exclusion 1) |  |  |  | apparent KD of MS2 coat protein [1]: 90.3 nM
CAGCGUUCAGGAUAUACAUGAGGAUCACCCAUGUGUUCCAGCUAGGAAACUAGCAAAUGUAGAAGGGAACGCUG [Mat - Exclusion 3 - JL Mod - D1] (Eterna round: R97, puzzle: Exclusion 3) | 463 | 125 |  | 
CAGCUGAAUGUGAGGAUAUGUCGAGCUGCGGCUCGAUAGAAGGCACAUGAGGAUCACCCAUGUCUCAACAGCUG [BmEx4/2-C3] (Eterna round: R97, puzzle: Brourd's mod of Exclusion 4) | 215 | 31.2 |  | 
CAGGAGUCACGAGGAUAUCUGGCUAAACGAACGAGAGAAGGUGUAGACUACCACAUGAGGAUCACCCAUGUUAUGACUAUACUA [Eternabot solution 30] (Eterna round: R96, puzzle: Exclusion NG 1) | 14.8 | 17.1 | 9.94 | 
CAGUACAGAGGAUAUACAUGAGGAUCACCCAUGUGUUCCAGCUAGGAAACUAGCGAAUGUAGAAGGCUGUACUG [jl-ex3-4.23 salish99 mod] (Eterna round: R97, puzzle: Exclusion 3) | 166 | 273 |  | 
